The values that follow come from patent US20180305431A1 (Novo Nordisk, published 2018).

In assay [1] the target is membrane-associated human IR-A (plasma membranes of BHK cells stably transfected with the human IR-A insert) (human) (UniProt P06213). The assay can be described thus: SPA competition vs [125I-A14Y]-human insulin, membrane hIR-A, 0.1% HSA.
Assay [2] has as its target membrane-associated human IR-B (plasma membranes of BHK cells stably transfected with the human IR-B insert) (human) (UniProt P06213). The assay can be described thus: SPA competition vs [125I-A14Y]-human insulin, membrane hIR-B, 0.1% HSA.
Assay [3] deals with insulin receptor on primary rat adipocytes (rat) (UniProt P15127). The assay can be described thus: cell-based or functional assay.
insulin receptor on primary rat adipocytes (rat), sequence (P15127 27-1383): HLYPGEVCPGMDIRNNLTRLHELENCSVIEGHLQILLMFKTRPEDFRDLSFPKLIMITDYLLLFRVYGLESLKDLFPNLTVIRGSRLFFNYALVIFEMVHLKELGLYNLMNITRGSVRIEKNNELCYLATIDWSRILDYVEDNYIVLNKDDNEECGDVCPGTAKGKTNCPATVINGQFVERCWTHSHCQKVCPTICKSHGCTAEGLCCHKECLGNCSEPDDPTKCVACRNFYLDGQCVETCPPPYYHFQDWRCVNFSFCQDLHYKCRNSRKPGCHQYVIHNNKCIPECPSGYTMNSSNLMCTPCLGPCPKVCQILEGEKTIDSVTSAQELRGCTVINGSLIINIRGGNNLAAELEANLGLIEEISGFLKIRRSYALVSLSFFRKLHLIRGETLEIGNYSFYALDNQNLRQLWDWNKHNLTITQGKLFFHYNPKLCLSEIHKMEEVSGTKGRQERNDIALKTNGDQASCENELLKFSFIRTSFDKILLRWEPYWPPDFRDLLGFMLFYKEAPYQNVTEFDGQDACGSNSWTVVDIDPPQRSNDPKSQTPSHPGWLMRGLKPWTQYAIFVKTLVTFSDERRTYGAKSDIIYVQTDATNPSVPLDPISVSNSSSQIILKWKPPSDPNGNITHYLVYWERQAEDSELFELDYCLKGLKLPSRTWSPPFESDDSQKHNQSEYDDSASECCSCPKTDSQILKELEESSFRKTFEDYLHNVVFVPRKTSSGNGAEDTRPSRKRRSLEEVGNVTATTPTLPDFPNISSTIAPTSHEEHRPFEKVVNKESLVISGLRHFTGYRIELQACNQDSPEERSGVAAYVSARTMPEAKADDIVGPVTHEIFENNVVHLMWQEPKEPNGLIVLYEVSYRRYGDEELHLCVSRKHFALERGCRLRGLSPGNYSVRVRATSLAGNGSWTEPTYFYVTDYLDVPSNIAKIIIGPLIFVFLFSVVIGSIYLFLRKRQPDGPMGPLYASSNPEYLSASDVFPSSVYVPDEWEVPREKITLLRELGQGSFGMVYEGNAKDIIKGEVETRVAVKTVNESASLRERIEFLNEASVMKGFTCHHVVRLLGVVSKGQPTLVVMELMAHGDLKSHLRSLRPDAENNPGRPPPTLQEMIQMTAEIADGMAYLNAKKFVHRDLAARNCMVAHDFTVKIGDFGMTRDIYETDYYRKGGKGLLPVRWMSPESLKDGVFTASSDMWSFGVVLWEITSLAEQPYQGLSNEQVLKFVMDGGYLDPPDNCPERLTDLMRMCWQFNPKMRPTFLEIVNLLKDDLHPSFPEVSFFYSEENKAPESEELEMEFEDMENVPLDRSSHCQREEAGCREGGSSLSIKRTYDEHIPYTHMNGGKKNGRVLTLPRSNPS
Assay [4] concerns the target T1, membrane-associated human IGF-1R (plasma membranes of BHK cells stably transfected with the human IGF-IR … (human, UniProt P08069 31-1367)).
T1 construct: whole, on cells; Receptor in purified plasma membranes, not on intact cells; also called hIGF1R; insulin-like growth factor 1 receptor
The assay is described as follows: SPA competition vs [125I-Tyr31]-human IGF-1, membrane hIGF-1R, 0.1% HSA. How it is done: The relative binding affinity for either of the membrane-associated human IR-A, IR-B or IGF-1R is determined by competition binding in a SPA setup. IR assays are performed in duplicate in 96-well OptiPlates (Perkin-Elmer Life Sciences). […] Assays are terminated by centrifugation of the plate at 2000 rpm for 2 minutes and bound radioactivity quantified by counting on a TopCount NXT (Perkin-Elmer Life Sciences).
IGF-1R assays are conducted essentially as for the IR binding assays except that membrane-associated IGF-1R and 50 pM [¹²5-Tyr31]-human IGF-1 were employed.

Assay [5] addresses T2, solubilised human IR-A (semipurified by wheat germ agglutinin chromatography from baby hamster kidney (BHK) … (human, UniProt P06213-2 28-1370)).
T2 construct: mature; Detergent-solubilised holoreceptor captured by anti-IR mouse antibody 83-7 on SPA beads; the precursor is processed into alpha and beta chains; also called hIRA; human insulin receptor (IR), A isoform
The assay is described as follows: SPA competition vs [125I-A14Y]-human insulin, solubilised hIR-A, 1.5% HSA.

Assay [6] deals with T2, solubilised human IR-A (semipurified by …). The assay can be described thus: SPA competition vs [125I-A14Y]-human insulin, solubilised hIR-A, 0% HSA.

membrane-associated human IR-B (plasma membranes of BHK cells stably transfected with the human IR-B insert) (human), sequence (P06213 28-1382): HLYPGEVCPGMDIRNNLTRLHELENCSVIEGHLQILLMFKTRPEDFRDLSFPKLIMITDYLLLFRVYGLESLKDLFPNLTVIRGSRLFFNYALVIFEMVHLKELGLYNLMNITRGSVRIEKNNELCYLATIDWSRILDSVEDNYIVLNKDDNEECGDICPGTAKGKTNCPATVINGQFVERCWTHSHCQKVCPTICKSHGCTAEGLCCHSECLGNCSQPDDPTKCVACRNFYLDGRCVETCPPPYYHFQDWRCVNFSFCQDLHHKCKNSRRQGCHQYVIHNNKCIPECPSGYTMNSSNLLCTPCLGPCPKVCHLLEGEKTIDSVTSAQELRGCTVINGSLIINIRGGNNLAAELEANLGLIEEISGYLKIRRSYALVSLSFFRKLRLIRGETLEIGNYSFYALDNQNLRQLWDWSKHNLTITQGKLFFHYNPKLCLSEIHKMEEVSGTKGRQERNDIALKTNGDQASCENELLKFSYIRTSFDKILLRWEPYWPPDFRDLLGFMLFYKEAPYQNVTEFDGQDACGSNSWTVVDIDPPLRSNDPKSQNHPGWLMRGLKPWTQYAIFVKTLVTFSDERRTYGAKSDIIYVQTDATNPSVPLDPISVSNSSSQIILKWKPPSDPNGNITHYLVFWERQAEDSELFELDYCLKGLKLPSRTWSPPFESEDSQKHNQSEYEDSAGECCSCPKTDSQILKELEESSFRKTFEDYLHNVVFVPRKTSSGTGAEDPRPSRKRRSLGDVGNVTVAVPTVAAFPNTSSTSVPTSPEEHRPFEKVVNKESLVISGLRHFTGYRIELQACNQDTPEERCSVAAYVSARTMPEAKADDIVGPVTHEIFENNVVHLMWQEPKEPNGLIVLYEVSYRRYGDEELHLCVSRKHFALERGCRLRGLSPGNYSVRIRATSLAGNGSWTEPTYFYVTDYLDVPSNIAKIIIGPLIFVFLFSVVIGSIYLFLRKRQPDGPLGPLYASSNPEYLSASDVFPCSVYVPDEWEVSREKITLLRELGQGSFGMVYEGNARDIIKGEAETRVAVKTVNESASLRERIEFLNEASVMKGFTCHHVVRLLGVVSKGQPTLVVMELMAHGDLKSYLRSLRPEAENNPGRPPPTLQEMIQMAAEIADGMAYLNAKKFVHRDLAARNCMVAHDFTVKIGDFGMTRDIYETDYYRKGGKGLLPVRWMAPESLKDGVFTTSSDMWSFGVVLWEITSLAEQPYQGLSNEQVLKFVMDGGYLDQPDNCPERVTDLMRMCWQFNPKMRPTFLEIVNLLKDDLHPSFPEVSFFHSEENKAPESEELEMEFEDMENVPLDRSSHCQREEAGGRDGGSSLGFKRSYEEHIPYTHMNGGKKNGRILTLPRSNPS
T2 sequence (P06213 other isoform, or with tags, fused parts or gaps limits assumed): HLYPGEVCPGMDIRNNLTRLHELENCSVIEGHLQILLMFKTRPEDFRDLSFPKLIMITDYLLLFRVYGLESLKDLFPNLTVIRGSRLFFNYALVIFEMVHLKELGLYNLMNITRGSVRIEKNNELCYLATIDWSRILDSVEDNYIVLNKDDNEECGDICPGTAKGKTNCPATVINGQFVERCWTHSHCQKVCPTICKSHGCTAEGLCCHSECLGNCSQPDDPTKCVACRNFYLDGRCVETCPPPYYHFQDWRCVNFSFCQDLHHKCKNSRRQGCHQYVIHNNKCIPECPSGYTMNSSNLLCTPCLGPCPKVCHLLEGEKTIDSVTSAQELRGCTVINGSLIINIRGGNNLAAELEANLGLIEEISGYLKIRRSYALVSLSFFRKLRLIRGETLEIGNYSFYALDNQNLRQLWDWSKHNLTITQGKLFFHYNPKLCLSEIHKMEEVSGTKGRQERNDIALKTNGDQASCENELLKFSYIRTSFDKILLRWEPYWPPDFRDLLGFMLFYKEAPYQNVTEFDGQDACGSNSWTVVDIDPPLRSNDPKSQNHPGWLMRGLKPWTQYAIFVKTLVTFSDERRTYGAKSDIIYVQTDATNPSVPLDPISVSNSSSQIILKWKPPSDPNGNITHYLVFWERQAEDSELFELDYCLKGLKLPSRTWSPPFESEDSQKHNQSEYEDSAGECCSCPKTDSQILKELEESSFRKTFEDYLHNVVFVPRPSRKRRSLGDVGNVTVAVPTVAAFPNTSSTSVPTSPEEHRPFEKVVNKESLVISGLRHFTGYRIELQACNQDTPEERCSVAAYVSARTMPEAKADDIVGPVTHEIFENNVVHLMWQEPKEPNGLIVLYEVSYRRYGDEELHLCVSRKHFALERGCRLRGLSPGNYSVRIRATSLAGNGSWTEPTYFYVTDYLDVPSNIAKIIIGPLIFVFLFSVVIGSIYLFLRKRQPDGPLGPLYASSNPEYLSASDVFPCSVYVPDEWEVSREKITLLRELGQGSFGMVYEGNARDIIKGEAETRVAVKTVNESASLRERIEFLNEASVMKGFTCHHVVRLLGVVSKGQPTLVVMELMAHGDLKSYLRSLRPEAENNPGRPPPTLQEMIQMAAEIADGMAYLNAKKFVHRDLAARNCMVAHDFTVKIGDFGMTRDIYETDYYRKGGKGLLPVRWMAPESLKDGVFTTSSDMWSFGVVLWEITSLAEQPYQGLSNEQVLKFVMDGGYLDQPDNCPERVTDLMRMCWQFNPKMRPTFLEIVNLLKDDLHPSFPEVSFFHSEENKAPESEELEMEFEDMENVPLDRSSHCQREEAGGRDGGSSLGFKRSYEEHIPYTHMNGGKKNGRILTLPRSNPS

Consider “A22K(N(eps)tetradecanedioyl-gGlu-2xOEG), B3E, B27P, B28E, B29R, desB30 human insulin (ligand)”, for which the relative binding affinity (% rel to HI) in assay [1] is 75.6 % rel to HI; in assay [2], 75.9 % rel to HI. Moreover, the Lipogenesis 1% HSA (% rel to HI) in assay [3] is 20.3 % rel to HI.
Consider “A22K(N(eps)tetradecanedioyl-gGlu-2xOEG), B3E, B28D, B29R, desB30 human insulin (ligand)”, for which the relative binding affinity (% rel to HI) in assay [1] is 93.9 % rel to HI; in assay [2], 108 % rel to HI. The Lipogenesis 1% HSA (% rel to HI) in assay [3] is 21.3 % rel to HI.

B1: A8R, A22K(N(eps)tetradecanedioyl-4xgGlu), B3E, B26E, B27E, B28R, desB29, desB30 human insulin (ligand)
chain 1: GIVEQCCRSICSLYQLENYCNK
chain 2: FVEQHLCGSHLVEALYLVCGERGFFEER
modifications: not fully specified; Lys A22 acylated on N(eps) with tetradecanedioyl-4xgGlu
notes: Two-chain acylated insulin analogue; also called Ex. No. 19
As for B1, the relative binding affinity (% rel to HI) in assay [1] was 88.8 % rel to HI; in assay [4], 22.6 % rel to HI; in assay [2] it was 155 % rel to HI; in assay [5], 188 % rel to HI; in assay [6], 260 % rel to HI. Moreover, the Lipogenesis 1% HSA (% rel to HI) in assay [3] was 80.3 % rel to HI.

B2: A8R, A22K(N(eps)tetradecanedioyl-4xgGlu), B3E, B26E, B27P, B28R, desB29, desB30 human insulin (ligand)
chain 1: GIVEQCCRSICSLYQLENYCNK
chain 2: FVEQHLCGSHLVEALYLVCGERGFFEPR
modifications: not fully specified; Lys A22 acylated on N(eps) with tetradecanedioyl-4xgGlu
notes: also called Ex. No. 16
As for B2, the relative binding affinity (% rel to HI) in assay [1] was 113 % rel to HI; in assay [4], 61.8 % rel to HI; in assay [2], 168 % rel to HI; in assay [5], 229 % rel to HI; in assay [6], 317 % rel to HI. The Lipogenesis 1% HSA (% rel to HI) in assay [3] is 130 % rel to HI.

B3: A8R, A22K(N(eps)tetradecanedioyl-4xgGlu), B3E, B27E, B28R, desB29, desB30 human insulin (ligand)
chain 1: GIVEQCCRSICSLYQLENYCNK
chain 2: FVEQHLCGSHLVEALYLVCGERGFFYER
modifications: not fully specified; Lys A22 acylated on N(eps) with tetradecanedioyl-4xgGlu
notes: Two-chain acylated insulin analogue; also called Ex. No. 17
For the molecule B3, the relative binding affinity (% rel to HI) in assay [1] is 85.2 % rel to HI; in assay [4], 32.9 % rel to HI; in assay [2] it was 130 % rel to HI; in assay [5], 163 % rel to HI; in assay [6] it was 243 % rel to HI. Further, the Lipogenesis 1% HSA (% rel to HI) in assay [3] is 70.7 % rel to HI.

B4: A8R, A22K(N(eps)tetradecanedioyl-4xgGlu), B3E, B26E, B28E, B29R, desB30 human insulin (ligand)
chain 1: GIVEQCCRSICSLYQLENYCNK
chain 2: FVEQHLCGSHLVEALYLVCGERGFFETER
modifications: not fully specified; Lys A22 acylated on N(eps) with tetradecanedioyl-4xgGlu
notes: Two-chain acylated insulin analogue; also called Ex. No. 23
As to B4, the relative binding affinity (% rel to HI) in assay [1] was 78.5 % rel to HI; in assay [4] it was 5.7 % rel to HI; in assay [2], 143 % rel to HI; in assay [5], 182 % rel to HI; in assay [6] it was 229 % rel to HI. The Lipogenesis 1% HSA (% rel to HI) in assay [3] was 59 % rel to HI.

B5: A14E, A22K(N(eps)tetradecanedioyl-4xgGlu), B3Q, B28D, B29R, desB30 human insulin (ligand)
chain 1: GIVEQCCTSICSLEQLENYCNK
chain 2: FVQQHLCGSHLVEALYLVCGERGFFYTDR
modifications: not fully specified; Lys A22 acylated on N(eps) with tetradecanedioyl-4xgGlu
notes: also called Ex. No. 8
Take B5: the relative binding affinity (% rel to HI) in assay [1] was 34.3 % rel to HI; in assay [4] it was 42 % rel to HI; in assay [2] it was 59.1 % rel to HI; in assay [5] it was 64.9 % rel to HI; in assay [6], 95.6 % rel to HI. For the same molecule, the Lipogenesis 1% HSA (% rel to HI) in assay [3] was 17.2 % rel to HI.

B6: A14E, A22K(N(eps)tetradecanedioyl-4xgGlu), B3E, B27E, B28E, B29R, desB30 human insulin (ligand)
chain 1: GIVEQCCTSICSLEQLENYCNK
chain 2: FVEQHLCGSHLVEALYLVCGERGFFYEER
modifications: not fully specified; Lys A22 acylated on N(eps) with tetradecanedioyl-4xgGlu
notes: Two-chain acylated insulin analogue; also called Ex. No. 4
On to B6, for which the relative binding affinity (% rel to HI) in assay [1] is 36.6 % rel to HI; in assay [4], 28.6 % rel to HI; in assay [2], 56.6 % rel to HI; in assay [5] it was 44.9 % rel to HI; in assay [6], 47.4 % rel to HI. For the same molecule, the Lipogenesis 1% HSA (% rel to HI) in assay [3] was 15.4 % rel to HI.

B7: A14E, A22K(N(eps)tetradecanedioyl-gGlu-2xOEG), B3E, B27E, B28E, B29R, desB30 human insulin (ligand)
chain 1: GIVEQCCTSICSLEQLENYCNK
chain 2: FVEQHLCGSHLVEALYLVCGERGFFYEER
modifications: not fully specified; Lys A22 acylated on N(eps) with tetradecanedioyl-gGlu-2xOEG
notes: Two-chain acylated insulin analogue; also called Ex. No. 2
Regarding B7, the relative binding affinity (% rel to HI) was 50.1 % rel to HI in assay [1]; 36.6 % rel to HI in assay [4]; 70.2 % rel to HI in assay [2]; 38.9 % rel to HI in assay [5]; 60.4 % rel to HI in assay [6]. The Lipogenesis 1% HSA (% rel to HI) in assay [3] was 14.2 % rel to HI.

B8: A14E, A22K(N(eps)hexadecanedioyl-4xgGlu), B3E, B27E, B28E, B29R, desB30 human insulin (ligand)
chain 1: GIVEQCCTSICSLEQLENYCNK
chain 2: FVEQHLCGSHLVEALYLVCGERGFFYEER
modifications: not fully specified; Lys A22 acylated on N(eps) with hexadecanedioyl-4xgGlu
notes: Two-chain acylated insulin analogue; also called Ex. No. 27
Turning to B8, the relative binding affinity (% rel to HI) is 16.5 % rel to HI in assay [1]; 14.3 % rel to HI in assay [4]; 23.2 % rel to HI in assay [2]; 5.4 % rel to HI in assay [5]; 114 % rel to HI in assay [6]. In addition, in assay [3], the Lipogenesis 1% HSA (% rel to HI) is 3.7 % rel to HI.

B9: A14E, A22K(N(eps)tetradecanedioyl-4xgGlu), B3Q, B27E, B28E, B29R, desB30 human insulin (ligand)
chain 1: GIVEQCCTSICSLEQLENYCNK
chain 2: FVQQHLCGSHLVEALYLVCGERGFFYEER
modifications: not fully specified; Lys A22 acylated on N(eps) with tetradecanedioyl-4xgGlu
notes: also called Ex. No. 9
Consider B9, for which the relative binding affinity (% rel to HI) in assay [1] is 36.8 % rel to HI; in assay [4] it was 29.5 % rel to HI; in assay [2], 68.7 % rel to HI; in assay [5], 70.2 % rel to HI; in assay [6] it was 83 % rel to HI. Besides, the Lipogenesis 1% HSA (% rel to HI) in assay [3] is 30.1 % rel to HI.

B10: A8R, A22K(N(eps)tetradecanedioyl-4xgGlu), B3E, B26E, B29R, desB30 human insulin (ligand)
chain 1: GIVEQCCRSICSLYQLENYCNK
chain 2: FVEQHLCGSHLVEALYLVCGERGFFETPR
modifications: not fully specified; Lys A22 acylated on N(eps) with tetradecanedioyl-4xgGlu
notes: Two-chain acylated insulin analogue; also called Ex. No. 15
As for B10, the relative binding affinity (% rel to HI) in assay [1] is 108 % rel to HI; in assay [4], 10.8 % rel to HI; in assay [2] it was 174 % rel to HI; in assay [5] it was 237 % rel to HI; in assay [6] it was 294 % rel to HI. Also, the Lipogenesis 1% HSA (% rel to HI) in assay [3] was 70.9 % rel to HI.

B11: A14E, A22K(N(eps)hexadecanedioyl-gGlu-2xOEG), B3E, B27E, B28E, B29R, desB30 human insulin (ligand)
chain 1: GIVEQCCTSICSLEQLENYCNK
chain 2: FVEQHLCGSHLVEALYLVCGERGFFYEER
modifications: not fully specified; Lys A22 acylated on N(eps) with hexadecanedioyl-gGlu-2xOEG
notes: Two-chain acylated insulin analogue; also called Ex. No. 26
Take B11: the relative binding affinity (% rel to HI) in assay [1] was 19.3 % rel to HI; in assay [4], 28.7 % rel to HI; in assay [2], 28.7 % rel to HI; in assay [5], 7.4 % rel to HI; in assay [6] it was 63.7 % rel to HI. In assay [3], the Lipogenesis 1% HSA (% rel to HI) is 2.6 % rel to HI.

B12: A8R, A22K(N(eps)tetradecanedioyl-4xgGlu), B3E, B27E, B28E, B29R, desB30 human insulin (ligand)
chain 1: GIVEQCCRSICSLYQLENYCNK
chain 2: FVEQHLCGSHLVEALYLVCGERGFFYEER
modifications: not fully specified; Lys A22 acylated on N(eps) with tetradecanedioyl-4xgGlu
notes: Two-chain acylated insulin analogue; also called Ex. No. 24
For B12, the relative binding affinity (% rel to HI) in assay [1] was 88.1 % rel to HI; in assay [4], 24 % rel to HI; in assay [2], 164 % rel to HI; in assay [5], 211 % rel to HI; in assay [6] it was 274 % rel to HI. Also, the Lipogenesis 1% HSA (% rel to HI) in assay [3] is 78.6 % rel to HI.
